From PMC5029526 come the findings set out here.

This experiment deals with HdaB-dsA (donor strand complemented HdaB: HdaB residues 1-119, 14-residue linker, HdaA residues 1-10) (Escherichia coli (enteroaggregative, EAEC)). Kind of experiment: SEC; Superdex-75 gel filtration in 50 mM NaOAc pH 5.0, 200 mM NaCl, last step of purification after refolding; monomer (17.5 kDa) and dimer (35 kDa) peaks. In general terms: In gel filtration, larger molecules generally elute earlier.

Broadly, the stoichiometry N is a count of units in the complex or per binding partner. In turn, “HdaB-dsA (donor strand complemented HdaB: HdaB residues 1-119, 14-residue linker, HdaA residues 1-10)” came in with a stoichiometry N of 2.
